According to patent US20140127815A1:

Molecular target: GPIba (CD42b) (human) (UniProt P07359)
Assay: cell-based or functional assay

UniProt P07359, sequence (P07359 17-652): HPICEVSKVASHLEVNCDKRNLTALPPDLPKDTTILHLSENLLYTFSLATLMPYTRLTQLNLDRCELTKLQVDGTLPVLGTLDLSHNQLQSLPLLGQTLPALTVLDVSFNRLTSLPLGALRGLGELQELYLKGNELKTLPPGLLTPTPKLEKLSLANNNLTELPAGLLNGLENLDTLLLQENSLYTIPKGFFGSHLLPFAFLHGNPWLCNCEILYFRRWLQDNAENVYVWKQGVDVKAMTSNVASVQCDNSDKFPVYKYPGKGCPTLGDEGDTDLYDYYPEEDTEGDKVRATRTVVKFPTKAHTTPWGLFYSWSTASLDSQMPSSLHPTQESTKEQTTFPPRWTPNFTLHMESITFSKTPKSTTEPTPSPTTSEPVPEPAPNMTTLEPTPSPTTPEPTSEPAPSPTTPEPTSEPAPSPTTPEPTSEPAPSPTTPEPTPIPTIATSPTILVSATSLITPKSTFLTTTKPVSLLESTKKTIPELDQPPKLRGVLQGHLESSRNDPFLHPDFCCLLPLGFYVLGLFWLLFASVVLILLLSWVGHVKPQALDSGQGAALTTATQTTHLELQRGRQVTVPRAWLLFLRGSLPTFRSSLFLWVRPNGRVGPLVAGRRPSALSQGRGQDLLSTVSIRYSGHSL

ristocetin agglutination reaction of human peripheral blood platelets (maximum light transmission): > 10 µg/mL
Substance: HIP1 antibody
